The values that follow come from patent US20220153869A1 (TAVOTEK BIOTHERAPEUTICS HONG KONG, published 2022).

The target in test [1] is T1, recombinant human HER2 (R&D systems) (human, UniProt P04626 23-652). As to the kind of experiment: ELISA, recombinant human HER2 coated; unmasked reference of the comparison (higher potency than uncut). As for the experimental part: (§1) ELISA-based binding assays were employed to evaluate the binding to HER2 by exemplary HER2 x VEGF bispecific antibodies with or without IGF2 masking domain (FIG. 9). In these assays, 1 μg/mL recombinant human HER2 (R&D systems) were coated on ELISA plate. Increasing concentrations of exemplary HER2 x VEGF bispecific antibodies were applied on the plate and their bindings to the recombinant human HER2 were detected by HRP-conjugated anti-human IgG secondary antibody.

Test [2] addresses T2, HER2 expressed on SK-BR-3 cell surface (UniProt P04626 23-1255, limits assumed).
T2 construct: whole, on cells; also called cell surface HER2; HER2-expressing SK-BR-3 cells
As to the kind of experiment: flow cytometry on SK-BR-3 cells; unmasked reference of the comparison (higher potency than uncut). From the text:
(§2) Flow cytometry-based binding assays were also employed to evaluate the binding to HER2 expressed on cell surface by exemplary HER2 x VEGF bispecific antibodies with or without IGF2 masking domain (FIG. 10). In these assays, increasing concentrations of exemplary HER2 x VEGF bispecific antibodies were applied to HER2-expressing SK-BR-3 cells and their bindings to cell surface HER2 were detected by PE-conjugated anti-human secondary antibody by MacsQuant flow cytometer.

The target in test [3] is T1, recombinant human HER2 (R&D systems). As to the kind of experiment: ELISA, recombinant human HER2 coated; masked antibody, not digested. As to the method: as §1
In general terms: In an ELISA, binding on a coated surface is turned into a signal by an enzyme label.

Test [4] deals with T2, HER2 expressed on SK-BR-3 cell surface. As to the kind of experiment: flow cytometry on SK-BR-3 cells; masked antibody, not digested.
From the text: as §2

The target of test [5] is recombinant human PD-L1 (R&D systems) (human, UniProt Q9NZQ7 19-239). The test is described as follows: ELISA, recombinant human PD-L1 coated at 1 ug/mL, anti-human IgG-HRP. As for the experimental part: ELISA-based binding assays were employed to evaluate the binding to PD-L1 by these bispecific antibodies (FIG. 31A). In these assays, 1 μg/mL recombinant human PD-L1 (R&D systems) were coated on ELISA plate. Increasing concentrations of exemplary HER2 x VEGF bispecific antibodies with ScFv of an anti-PD-L1 antibody as a homing domain were applied on the plate and their bindings to the recombinant human PD-L1 were detected by HRP-conjugated anti-human IgG secondary antibody.
recombinant human PD-L1 (R&D systems), sequence (Q9NZQ7 19-239 limits assumed): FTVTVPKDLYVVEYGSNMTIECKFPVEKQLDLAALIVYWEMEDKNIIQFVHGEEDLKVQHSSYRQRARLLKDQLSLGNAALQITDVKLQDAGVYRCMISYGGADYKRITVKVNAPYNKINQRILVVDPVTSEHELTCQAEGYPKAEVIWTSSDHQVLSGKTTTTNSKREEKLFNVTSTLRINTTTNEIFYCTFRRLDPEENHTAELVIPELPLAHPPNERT

The target of test [6] is T1, recombinant human HER2 (R&D systems). The test is described as follows: ELISA, recombinant human HER2 coated at 1 ug/mL, anti-human IgG-HRP. As to the method: as §1
Test [7] deals with T2, HER2 expressed on SK-BR-3 cell surface. As to the kind of experiment: flow cytometry on SK-BR-3 cells, PE anti-human secondary.
From the text: as §2
On the technique in general: A flow cytometer gives signals particle by particle.

B1: TrasVH1VL1 x BevaVH3VL1_IgG1_LS (bispecific antibody)
heavy 1: QVQLVQSGAEVKKPGSSVKVSCKASGFNIKDTYIHWVRQAPGQGLEWMGRIYPTNGYTRYAQKFQGRATITADESTSTAYMEVSSLRSEDTAVYYCSRWGGDGFYAMDYWGQGTLVTVSSASTKGPSVFPLAPSSKSTSGGTAALGCLVKDYFPEPVTVSWNSGALTSGVHTFPAVLQSSGLYSLSSVVTVPSSSLGTQTYICNVNHKPSNTKVDKKVEPKSCDKTHTCPPCPAPELLGGPSVFLFPPKPKDTLMISRTPEVTCVVVDVSHEDPEVKFNWYVDGVEVHNAKTKPREEQYNSTYRVVSVLTVLHQDWLNGKEYKCKVSNKALPAPIEKTISKAKGQPREPQVYTLPPSRDELTKNQVSLTCLVKGFYPSDIAVEWESNGQPENNYKTTPPVLDSDGSFLLYSKLTVDKSRWQQGNVFSCSVLHEALHSHYTQKSLSLSPGK
light 1: DIVMTQTPLSLPVTPGEPASISCRASQDVNTAVAWYLQKPGQSPQLLIYSASFRYTGVPDRFSGSGSGTDFTLKISRVEAEDVGVYYCQQHYTTPPTFGQGTKVEIKRTVAAPSVFIFPPSDEQLKSGTASVVCLLNNFYPREAKVQWKVDNALQSGNSQESVTEQDSKDSTYSLSSTLTLSKADYEKHKVYACEVTHQGLSSPVTKSFNRGEC
heavy 2: QVQLVQSGAEVKKPGSSVKVSCKASGYTFTNYGMNWVRQAPGQGLEWMGWINTYTGEPTYAQKFQGRVTITADESTSTAYMELSSLRSEDTAVYYCAKYPHYYGSSHWYFDVWGQGTLVTVSSASTKGPSVFPLAPSSKSTSGGTAALGCLVKDYFPEPVTVSWNSGALTSGVHTFPAVLQSSGLYSLSSVVTVPSSSLGTQTYICNVNHKPSNTKVDKKVEPKSCDKTHTCPPCPAPELLGGPSVFLFPPKPKDTLMISRTPEVTCVVVDVSHEDPEVKFNWYVDGVEVHNAKTKPREEQYNSTYRVVSVLTVLHQDWLNGKEYKCKVSNKALPAPIEKTISKAKGQPREPQVYTLPPSRDELTKNQVSLTCLVKGFYPSDIAVEWESNGQPENNYKTTPPVLDSDGSFFLYSRLTVDKSRWQQGNVFSCSVLHEALHSHYTQKSLSLSPGK
light 2: not shown
On to B1, for which the binding result in test [1] and in test [2] was “binds” in each case.

B2: TrasVH1VL1 x BevaVH3VL1_IgG1_LS_E345R (bispecific antibody)
heavy 1: QVQLVQSGAEVKKPGSSVKVSCKASGFNIKDTYIHWVRQAPGQGLEWMGRIYPTNGYTRYAQKFQGRATITADESTSTAYMEVSSLRSEDTAVYYCSRWGGDGFYAMDYWGQGTLVTVSSASTKGPSVFPLAPSSKSTSGGTAALGCLVKDYFPEPVTVSWNSGALTSGVHTFPAVLQSSGLYSLSSVVTVPSSSLGTQTYICNVNHKPSNTKVDKKVEPKSCDKTHTCPPCPAPELLGGPSVFLFPPKPKDTLMISRTPEVTCVVVDVSHEDPEVKFNWYVDGVEVHNAKTKPREEQYNSTYRVVSVLTVLHQDWLNGKEYKCKVSNKALPAPIEKTISKAKGQPRRPQVYTLPPSRDELTKNQVSLTCLVKGFYPSDIAVEWESNGQPENNYKTTPPVLDSDGSFLLYSKLTVDKSRWQQGNVFSCSVLHEALHSHYTQKSLSLSPGK
light 1: DIVMTQTPLSLPVTPGEPASISCRASQDVNTAVAWYLQKPGQSPQLLIYSASFRYTGVPDRFSGSGSGTDFTLKISRVEAEDVGVYYCQQHYTTPPTFGQGTKVEIKRTVAAPSVFIFPPSDEQLKSGTASVVCLLNNFYPREAKVQWKVDNALQSGNSQESVTEQDSKDSTYSLSSTLTLSKADYEKHKVYACEVTHQGLSSPVTKSFNRGEC
heavy 2: QVQLVQSGAEVKKPGSSVKVSCKASGYTFTNYGMNWVRQAPGQGLEWMGWINTYTGEPTYAQKFQGRVTITADESTSTAYMELSSLRSEDTAVYYCAKYPHYYGSSHWYFDVWGQGTLVTVSSASTKGPSVFPLAPSSKSTSGGTAALGCLVKDYFPEPVTVSWNSGALTSGVHTFPAVLQSSGLYSLSSVVTVPSSSLGTQTYICNVNHKPSNTKVDKKVEPKSCDKTHTCPPCPAPELLGGPSVFLFPPKPKDTLMISRTPEVTCVVVDVSHEDPEVKFNWYVDGVEVHNAKTKPREEQYNSTYRVVSVLTVLHQDWLNGKEYKCKVSNKALPAPIEKTISKAKGQPRRPQVYTLPPSRDELTKNQVSLTCLVKGFYPSDIAVEWESNGQPENNYKTTPPVLDSDGSFFLYSRLTVDKSRWQQGNVFSCSVLHEALHSHYTQKSLSLSPGK
light 2: not shown
For the molecule B2, the binding result in test [1] and in test [2] was “binds” throughout.

B3: IGF2_MMP2_TrasVH1VL1 x BevaVH3VL1_IgG1_LS_E345R uncut (bispecific antibody)
heavy 1: GILEECCFRSCDLALLETYCAGGGGSPLGLAGGGGGSQVQLVQSGAEVKKPGSSVKVSCKASGFNIKDTYIHWVRQAPGQGLEWMGRIYPTNGYTRYAQKFQGRATITADESTSTAYMEVSSLRSEDTAVYYCSRWGGDGFYAMDYWGQGTLVTVSSASTKGPSVFPLAPSSKSTSGGTAALGCLVKDYFPEPVTVSWNSGALTSGVHTFPAVLQSSGLYSLSSVVTVPSSSLGTQTYICNVNHKPSNTKVDKKVEPKSCDKTHTCPPCPAPELLGGPSVFLFPPKPKDTLMISRTPEVTCVVVDVSHEDPEVKFNWYVDGVEVHNAKTKPREEQYNSTYRVVSVLTVLHQDWLNGKEYKCKVSNKALPAPIEKTISKAKGQPRRPQVYTLPPSRDELTKNQVSLTCLVKGFYPSDIAVEWESNGQPENNYKTTPPVLDSDGSFLLYSKLTVDKSRWQQGNVFSCSVLHEALHSHYTQKSLSLSPGK
light 1: AYRPSETLCGGELVDTLQFVCGDRGFAFGGGGSPLGLAGGGGGSDIVMTQTPLSLPVTPGEPASISCRASQDVNTAVAWYLQKPGQSPQLLIYSASFRYTGVPDRFSGSGSGTDFTLKISRVEAEDVGVYYCQQHYTTPPTFGQGTKVEIKRTVAAPSVFIFPPSDEQLKSGTASVVCLLNNFYPREAKVQWKVDNALQSGNSQESVTEQDSKDSTYSLSSTLTLSKADYEKHKVYACEVTHQGLSSPVTKSFNRGEC
heavy 2: GILEECCFRSCDLALLETYCAGGGGSPLGLAGGGGGSQVQLVQSGAEVKKPGSSVKVSCKASGYTFTNYGMNWVRQAPGQGLEWMGWINTYTGEPTYAQKFQGRVTITADESTSTAYMELSSLRSEDTAVYYCAKYPHYYGSSHWYFDVWGQGTLVTVSSASTKGPSVFPLAPSSKSTSGGTAALGCLVKDYFPEPVTVSWNSGALTSGVHTFPAVLQSSGLYSLSSVVTVPSSSLGTQTYICNVNHKPSNTKVDKKVEPKSCDKTHTCPPCPAPELLGGPSVFLFPPKPKDTLMISRTPEVTCVVVDVSHEDPEVKFNWYVDGVEVHNAKTKPREEQYNSTYRVVSVLTVLHQDWLNGKEYKCKVSNKALPAPIEKTISKAKGQPRRPQVYTLPPSRDELTKNQVSLTCLVKGFYPSDIAVEWESNGQPENNYKTTPPVLDSDGSFFLYSRLTVDKSRWQQGNVFSCSVLHEALHSHYTQKSLSLSPGK
light 2: not shown
Consider B3, for which the binding result in test [3] and in test [4] was “binds” each time.

B4: Tras x Beva_IgG1_LS (bispecific antibody)
heavy 1: not shown
light 1: not shown
heavy 2: EVQLVESGGGLVQPGGSLRLSCAASGYTFTNYGMNWVRQAPGKGLEWVGWINTYTGEPTYAADFKRRFTFSLDTSKSTAYLQMNSLRAEDTAVYYCAKYPHYYGSSHWYFDVWGQGTLVTVSSASTKGPSVFPLAPSSKSTSGGTAALGCLVKDYFPEPVTVSWNSGALTSGVHTFPAVLQSSGLYSLSSVVTVPSSSLGTQTYICNVNHKPSNTKVDKKVEPKSCDKTHTCPPCPAPELLGGPSVFLFPPKPKDTLMISRTPEVTCVVVDVSHEDPEVKFNWYVDGVEVHNAKTKPREEQYNSTYRVVSVLTVLHQDWLNGKEYKCKVSNKALPAPIEKTISKAKGQPREPQVYTLPPSRDELTKNQVSLTCLVKGFYPSDIAVEWESNGQPENNYKTTPPVLDSDGSFFLYSRLTVDKSRWQQGNVFSCSVLHEALHSHYTQKSLSLSPGK
light 2: not shown
notes: also called HER2 x VEGF bispecific antibody
For the molecule B4, in test [5], the binding result is recorded as “no binding”.

B5: Tras x Beva_IgG1_LS_E345R (bispecific antibody)
heavy 1: not shown
light 1: not shown
heavy 2: EVQLVESGGGLVQPGGSLRLSCAASGYTFTNYGMNWVRQAPGKGLEWVGWINTYTGEPTYAADFKRRFTFSLDTSKSTAYLQMNSLRAEDTAVYYCAKYPHYYGSSHWYFDVWGQGTLVTVSSASTKGPSVFPLAPSSKSTSGGTAALGCLVKDYFPEPVTVSWNSGALTSGVHTFPAVLQSSGLYSLSSVVTVPSSSLGTQTYICNVNHKPSNTKVDKKVEPKSCDKTHTCPPCPAPELLGGPSVFLFPPKPKDTLMISRTPEVTCVVVDVSHEDPEVKFNWYVDGVEVHNAKTKPREEQYNSTYRVVSVLTVLHQDWLNGKEYKCKVSNKALPAPIEKTISKAKGQPRRPQVYTLPPSRDELTKNQVSLTCLVKGFYPSDIAVEWESNGQPENNYKTTPPVLDSDGSFFLYSRLTVDKSRWQQGNVFSCSVLHEALHSHYTQKSLSLSPGK
light 2: not shown
For B5, the binding result in test [5] is “no binding”.

B6: Beva_IgG1_LS (antibody, V domains shown)
VH: EVQLVESGGGLVQPGGSLRLSCAASGYTFTNYGMNWVRQAPGKGLEWVGWINTYTGEPTYAADFKRRFTFSLDTSKSTAYLQMNSLRAEDTAVYYCAKYPHYYGSSHWYFDVWGQGTLVTVSS
VL: DIQMTQSPSSLSASVGDRVTITCSASQDISNYLNWYQQKPGKAPKVLIYFTSSLHSGVPSRFSGSGSGTDFTLTISSLQPEDFATYYCQQYSTVPWTFGQGTKVEIKR
notes: also called EAC291/EAC207
For B6, the binding result in test [6] and in test [7] was “no binding” throughout.
